The text below walks through data of PMC3829318.

A short description of data set [1]: anti-KOR1 immunoblot of Sf21 culture medium. To be noted: glycan lost; control: rKOR1 WT.
Data set [2] is described as follows: transient expression in N. benthamiana leaves. To be noted: glycan lost; control: wild-type KOR1-Fc-GFP.
Data set [3] in a line: Golgi processing of remaining glycopeptides, LC-ESI-MS, N. benthamiana. To be noted: glycan lost; control: wild-type KOR1-Fc-GFP.
Data set [4] in a line: CMC hydrolysis after non-denaturing Endo H.
Data set [5] in a line: CMC hydrolysis after non-denaturing deglycosylation. To be noted: glycan lost; control: untreated rKOR1 WT.
The mark [6] stands for this setting: glycan lost, control: Endo H-digested rKOR1 WT.

B1: KORRIGAN1 (KOR1): N324Q/N345Q (protein)
parent chain: MYGRDPWGGPLEINTADSATDDDRSRNLNDLDRAALSRPLDETQQSWLLGPTEQKKKKYVDLGCIIVSRKIFVWTVGTLVAAALLAGFITLIVKTVPRHHPKTPPPDNYTIALHKALKFFNAQKSGKLPKHNNVSWRGNSGLQDGKGETGSFYKDLVGGYYDAGDAIKFNFPMAYAMTMLSWSVIEYSAKYEAAGELTHVKELIKWGTDYFLKTFNSTADSIDDLVSQVGSGNTDDGNTDPNDHYCWMRPEDMDYKRPVTTCNGGCSDLAAEMAAALASASIVFKDNKEYSKKLVHGAKVVYQFGRTRRGRYSAGTAESSKFYNSSMYWDEFIWGGAWMYYATGNVTYLNLITQPTMAKHAGAFWGGPYYGVFSWDNKLAGAQLLLSRLRLFLSPGYPYEEILRTFHNQTSIVMCSYLPIFNKFNRTNGGLIELNHGAPQPLQYSVNAAFLATLYSDYLDAADTPGWYCGPNFYSTSVLRDFARSQIDYILGKNPRKMSYVVGFGTKYPRHVHHRGASIPKNKVKYNCKGGWKWRDSKKPNPNTIEGAMVAGPDKRDGYRDVRMNYNYTEPTLAGNAGLVAALVALSGEEEATGKIDKNTIFSAVPPLFPTPPPPPAPWKP
For B1, the expression_or_secretion result in data set [1] is “decreases”; in data set [2], “no change”. Further, the localisation_or_trafficking entry in data set [3] was “no change”.

B2: KORRIGAN1 (KOR1): N408Q + Endo H (protein)
parent chain: B1 parent chain
For the protein B2, the enzymatic_activity entry in data set [4] (setting [6]) is “no change”.

B3: KORRIGAN1 (KOR1): Endo H (protein)
parent chain: B1 parent chain
Consider B3, for which, in data set [5], the “enzymatic_activity, percent_of_wt” value is “decreases, loss of 20–30% vs 100”.

B4: KORRIGAN1 (KOR1): N345Q + Endo H (protein)
parent chain: B1 parent chain
As for B4, the enzymatic_activity result in data set [4] (setting [6]) is given as “no change”.

B5: KORRIGAN1 (KOR1): N324Q + Endo H (protein)
parent chain: B1 parent chain
For the protein B5, the enzymatic_activity entry in data set [4] (setting [6]) is given as “no change”.

B6: KORRIGAN1 (KOR1): PNGase F (protein)
parent chain: B1 parent chain
For B6, the “enzymatic_activity, percent_of_wt” value in data set [5] was “decreases, ∼50 vs 100”.

B7: KORRIGAN1 (KOR1): N216Q + Endo H (protein)
parent chain: B1 parent chain
On to B7, for which the enzymatic_activity entry in data set [4] (setting [6]) is “no change”.

B8: KORRIGAN1 (KOR1): N425Q + Endo H (protein)
parent chain: B1 parent chain
For B8, the enzymatic_activity entry in data set [4] (setting [6]) is on record as “no change”.

B9: KORRIGAN1 (KOR1): kifunensine (rKOR1 KIF) + Endo H (protein)
parent chain: B1 parent chain
For B9, the enzymatic_activity entry in data set [4] (glycan changed form, control: Endo H-treated rKOR1 WT) was “decreases”.
